Experimental data as given in US20250152746A1, “BASE EDITING OF ANGPTL3 AND METHODS OF USING SAME FOR TREATMENT OF DISEASE” (Verve Therapeutics, Inc., priority 2020, published 2025).
In the oligonucleotide strings, read from the 5' end, every base follows the letter of its sugar. An asterisk marks phosphorothioate; unmarked linkages are phosphodiester. Other units and linkages are bracketed, terminal groups are in braces. A string of capitals states the bases alone. m = 2'-O-methyl; r = 2'-OH (RNA)

Key:
[1] = test system: PCSK9 gene; assay: PCSK9 gRNA/SpCas9 editing in primary human hepatocytes (Tables 2, 4); assay type: cell-based; conditions: SpCas9 mRNA MS002 1:1 by weight; for Human Primary Hepatocyte Editing % 100: 100 ng/RNA/mL; for Human Primary Hepatocyte Editing % 500: 500 ng/RNA/mL; for Human Primary Hepatocyte Editing % 2500: 2500 ng/RNA/mL
In short: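 Editing at the PCSK9 site quantified by NGS of PCR amplicons from genomic DNA. Input: SpCas9 mRNA with gRNA, 1:1 by weight, transfected into primary human hepatocytes at 2500, 500 or 100 ng RNA/mL (tracr-modified guides at 2500, 1250, 500, 250 ng/mL).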

[2] = test system: PCSK9 gene; assay: PCSK9 gRNA/SpCas9 editing in primary cynomolgus hepatocytes (Tables 2, 22); assay type: cell-based, cynomolgus monkey; conditions: SpCas9 mRNA MS002 1:1 by weight; for Cyno Primary Hepatocyte Editing % 100: 100 ng/RNA/mL; for Cyno Primary Hepatocyte Editing % 500: 500 ng/RNA/mL; for Cyno Primary Hepatocyte Editing % 2500: 2500 ng/RNA/mL

B1: GA184: PCSK9 gRNA; protospacer ATGGAAGACATGCAGGATCT (SEQ ID NO: 178) (nucleic acid)
guide: mA*mU*mG*rGrArArGrArCrArUrGrCrArGrGrArUrCrUrGrUrUrUrUrArGrArGrCrUrArGrArArArUrArGrCrArArGrUrUrArArArArUrArArGrGrCrUrArGrUrCrCrGrUrUrArUrCrArArCrUrUrGrArArArArArGrUrGrGrCrArCrCrGrArGrUrCrGrGrUrGrCrU*mU*mU*mU
- Human Primary Hepatocyte Editing % 100 [1]: 2.65%
- Human Primary Hepatocyte Editing % 500 [1]: 8.29%
- Human Primary Hepatocyte Editing % 2500 [1]: 29.55%
- Cyno Primary Hepatocyte Editing % 100 [2]: 2.90%
- Cyno Primary Hepatocyte Editing % 500 [2]: 10.54%
- Cyno Primary Hepatocyte Editing % 2500 [2]: 31.87%

B2: GA180: PCSK9 gRNA; protospacer GCGCACTGCCCGCCGCCTGC (SEQ ID NO: 174) (nucleic acid)
guide: mG*mC*mG*rCrArCrUrGrCrCrCrGrCrCrGrCrCrUrGrCrGrUrUrUrUrArGrArGrCrUrArGrArArArUrArGrCrArArGrUrUrArArArArUrArArGrGrCrUrArGrUrCrCrGrUrUrArUrCrArArCrUrUrGrArArArArArGrUrGrGrCrArCrCrGrArGrUrCrGrGrUrGrCrU*mU*mU*mU
- Human Primary Hepatocyte Editing % 100 [1]: 0.22%
- Human Primary Hepatocyte Editing % 500 [1]: 2.22%
- Human Primary Hepatocyte Editing % 2500 [1]: 17.16%
- Cyno Primary Hepatocyte Editing % 100 [2]: 0.91%
- Cyno Primary Hepatocyte Editing % 500 [2]: 2.45%
- Cyno Primary Hepatocyte Editing % 2500 [2]: 14.12%

B3: GA185: PCSK9 gRNA; protospacer AGACATGCAGGATCTTGGTG (SEQ ID NO: 179) (nucleic acid)
guide: mA*mG*mA*rCrArUrGrCrArGrGrArUrCrUrUrGrGrUrGrGrUrUrUrUrArGrArGrCrUrArGrArArArUrArGrCrArArGrUrUrArArArArUrArArGrGrCrUrArGrUrCrCrGrUrUrArUrCrArArCrUrUrGrArArArArArGrUrGrGrCrArCrCrGrArGrUrCrGrGrUrGrCrU*mU*mU*mU
- Human Primary Hepatocyte Editing % 100 [1]: 1.6%
- Human Primary Hepatocyte Editing % 500 [1]: 10.91%
- Human Primary Hepatocyte Editing % 2500 [1]: 27.98%
- Cyno Primary Hepatocyte Editing % 100 [2]: 1.14%
- Cyno Primary Hepatocyte Editing % 500 [2]: 7.75%
- Cyno Primary Hepatocyte Editing % 2500 [2]: 20.29%

B4: GA181: PCSK9 gRNA; protospacer GGCTTCCTGGTGAAGATGAG (SEQ ID NO: 175) (nucleic acid)
guide: mG*mG*mC*rUrUrCrCrUrGrGrUrGrArArGrArUrGrArGrGrUrUrUrUrArGrArGrCrUrArGrArArArUrArGrCrArArGrUrUrArArArArUrArArGrGrCrUrArGrUrCrCrGrUrUrArUrCrArArCrUrUrGrArArArArArGrUrGrGrCrArCrCrGrArGrUrCrGrGrUrGrCrU*mU*mU*mU
- Human Primary Hepatocyte Editing % 100 [1]: 28.87%
- Cyno Primary Hepatocyte Editing % 100 [2]: 3.66%
- Cyno Primary Hepatocyte Editing % 500 [2]: 15.43%
- Cyno Primary Hepatocyte Editing % 2500 [2]: 45.12%

B5: GA182: PCSK9 gRNA; protospacer CACCTACGTGGTGGTGCTGA (SEQ ID NO: 176) (nucleic acid)
guide: mC*mA*mC*rCrUrArCrGrUrGrGrUrGrGrUrGrCrUrGrArGrUrUrUrUrArGrArGrCrUrArGrArArArUrArGrCrArArGrUrUrArArArArUrArArGrGrCrUrArGrUrCrCrGrUrUrArUrCrArArCrUrUrGrArArArArArGrUrGrGrCrArCrCrGrArGrUrCrGrGrUrGrCrU*mU*mU*mU
- Human Primary Hepatocyte Editing % 100 [1]: 0.95%
- Human Primary Hepatocyte Editing % 500 [1]: 4.49%
- Human Primary Hepatocyte Editing % 2500 [1]: 17.44%
- Cyno Primary Hepatocyte Editing % 100 [2]: 1.55%
- Cyno Primary Hepatocyte Editing % 500 [2]: 6.14%
- Cyno Primary Hepatocyte Editing % 2500 [2]: 22.89%

B6: GA175: PCSK9 gRNA; protospacer GAAGATGAGTGGCGACCTGC (SEQ ID NO: 169) (nucleic acid)
guide: GAAGAUGAGUGGCGACCUGCGUUUUAGAGCUAGAAAUAGCAAGUUAAAAUAAGGCUAGUCCGUUAUCAACUUGAAAAAGUGGCACCGAGUCGGUGCUUUU
modifications: sugars from the 5' end m3 r94 m3, linkages s3 o93 s3 (s phosphorothioate, o phosphodiester), T or U not given here
- Human Primary Hepatocyte Editing % 100 [1]: 1.55%
- Human Primary Hepatocyte Editing % 500 [1]: 7.53%
- Human Primary Hepatocyte Editing % 2500 [1]: 24.81%
- Cyno Primary Hepatocyte Editing % 100 [2]: 1.45%
- Cyno Primary Hepatocyte Editing % 500 [2]: 12.37%
- Cyno Primary Hepatocyte Editing % 2500 [2]: 44.77%

B7: GA178: PCSK9 gRNA; protospacer CTCCTTCAGCACCACCACGT (SEQ ID NO: 172) (nucleic acid)
guide: mC*mU*mC*rCrUrUrCrArGrCrArCrCrArCrCrArCrGrUrGrUrUrUrUrArGrArGrCrUrArGrArArArUrArGrCrArArGrUrUrArArArArUrArArGrGrCrUrArGrUrCrCrGrUrUrArUrCrArArCrUrUrGrArArArArArGrUrGrGrCrArCrCrGrArGrUrCrGrGrUrGrCrU*mU*mU*mU
- Human Primary Hepatocyte Editing % 100 [1]: 1.26%
- Human Primary Hepatocyte Editing % 500 [1]: 5.43%
- Human Primary Hepatocyte Editing % 2500 [1]: 18.29%
- Cyno Primary Hepatocyte Editing % 100 [2]: 2.21%
- Cyno Primary Hepatocyte Editing % 500 [2]: 5.78%
- Cyno Primary Hepatocyte Editing % 2500 [2]: 25.22%

B8: GA173: PCSK9 gRNA; protospacer CTTGGTGAGGTATCCCCGGC (SEQ ID NO: 167) (nucleic acid)
guide: CUUGGUGAGGUAUCCCCGGCGUUUUAGAGCUAGAAAUAGCAAGUUAAAAUAAGGCUAGUCCGUUAUCAACUUGAAAAAGUGGCACCGAGUCGGUGCUUUU
modifications: sugars from the 5' end m3 r94 m3, linkages s3 o93 s3 (s phosphorothioate, o phosphodiester), T or U not given here
- Human Primary Hepatocyte Editing % 100 [1]: 0.69%
- Human Primary Hepatocyte Editing % 500 [1]: 3.94%
- Human Primary Hepatocyte Editing % 2500 [1]: 23.38%
- Cyno Primary Hepatocyte Editing % 100 [2]: 2.06%
- Cyno Primary Hepatocyte Editing % 500 [2]: 8.70%
- Cyno Primary Hepatocyte Editing % 2500 [2]: 35.03%

B9: GA176: PCSK9 gRNA; protospacer AGCACCACCACGTAGGTGCC (SEQ ID NO: 170) (nucleic acid)
guide: AGCACCACCACGUAGGUGCCGUUUUAGAGCUAGAAAUAGCAAGUUAAAAUAAGGCUAGUCCGUUAUCAACUUGAAAAAGUGGCACCGAGUCGGUGCUUUU
modifications: sugars from the 5' end m3 r94 m3, linkages s3 o93 s3 (s phosphorothioate, o phosphodiester), T or U not given here
- Human Primary Hepatocyte Editing % 100 [1]: 0.36%
- Human Primary Hepatocyte Editing % 500 [1]: 1.26%
- Human Primary Hepatocyte Editing % 2500 [1]: 4.98%
- Cyno Primary Hepatocyte Editing % 100 [2]: 2.11%
- Cyno Primary Hepatocyte Editing % 500 [2]: 8.11%
- Cyno Primary Hepatocyte Editing % 2500 [2]: 22.65%

B10: GA177: PCSK9 gRNA; protospacer GGTCGCCACTCATCTTCACC (SEQ ID NO: 171) (nucleic acid)
guide: GGUCGCCACUCAUCUUCACCGUUUUAGAGCUAGAAAUAGCAAGUUAAAAUAAGGCUAGUCCGUUAUCAACUUGAAAAAGUGGCACCGAGUCGGUGCUUUU
modifications: sugars from the 5' end m3 r94 m3, linkages s3 o93 s3 (s phosphorothioate, o phosphodiester), T or U not given here
- Human Primary Hepatocyte Editing % 100 [1]: 0.65%
- Human Primary Hepatocyte Editing % 500 [1]: 2.67%
- Human Primary Hepatocyte Editing % 2500 [1]: 12.57%
- Cyno Primary Hepatocyte Editing % 100 [2]: 0.38%
- Cyno Primary Hepatocyte Editing % 500 [2]: 4.68%
- Cyno Primary Hepatocyte Editing % 2500 [2]: 15.91%

B11: GA179: PCSK9 gRNA; protospacer GAGTGGCGACCTGCTGGAGC (SEQ ID NO: 173) (nucleic acid)
guide: mG*mA*mG*rUrGrGrCrGrArCrCrUrGrCrUrGrGrArGrCrGrUrUrUrUrArGrArGrCrUrArGrArArArUrArGrCrArArGrUrUrArArArArUrArArGrGrCrUrArGrUrCrCrGrUrUrArUrCrArArCrUrUrGrArArArArArGrUrGrGrCrArCrCrGrArGrUrCrGrGrUrGrCrU*mU*mU*mU
- Human Primary Hepatocyte Editing % 100 [1]: 1.29%
- Human Primary Hepatocyte Editing % 500 [1]: 6%
- Human Primary Hepatocyte Editing % 2500 [1]: 21.87%
- Cyno Primary Hepatocyte Editing % 100 [2]: 1.06%
- Cyno Primary Hepatocyte Editing % 500 [2]: 4.21%
- Cyno Primary Hepatocyte Editing % 2500 [2]: 12.94%

B12: GA174: PCSK9 gRNA; protospacer GGATCTTGGTGAGGTATCCC (SEQ ID NO: 168) (nucleic acid)
guide: GGAUCUUGGUGAGGUAUCCCGUUUUAGAGCUAGAAAUAGCAAGUUAAAAUAAGGCUAGUCCGUUAUCAACUUGAAAAAGUGGCACCGAGUCGGUGCUUUU
modifications: sugars from the 5' end m3 r94 m3, linkages s3 o93 s3 (s phosphorothioate, o phosphodiester), T or U not given here
- Human Primary Hepatocyte Editing % 100 [1]: 1.18%
- Human Primary Hepatocyte Editing % 500 [1]: 5.24%
- Human Primary Hepatocyte Editing % 2500 [1]: 14.74%
- Cyno Primary Hepatocyte Editing % 100 [2]: 1.60%
- Cyno Primary Hepatocyte Editing % 500 [2]: 4.88%
- Cyno Primary Hepatocyte Editing % 2500 [2]: 18.65%

B13: GA186: PCSK9 gRNA; protospacer CTCATCTTCACCAGGAAGCC (SEQ ID NO: 180) (nucleic acid)
guide: mC*mU*mC*rArUrCrUrUrCrArCrCrArGrGrArArGrCrCrGrUrUrUrUrArGrArGrCrUrArGrArArArUrArGrCrArArGrUrUrArArArArUrArArGrGrCrUrArGrUrCrCrGrUrUrArUrCrArArCrUrUrGrArArArArArGrUrGrGrCrArCrCrGrArGrUrCrGrGrUrGrCrU*mU*mU*mU
- Human Primary Hepatocyte Editing % 100 [1]: 0.79%
- Human Primary Hepatocyte Editing % 500 [1]: 3.57%
- Human Primary Hepatocyte Editing % 2500 [1]: 12.01%
- Cyno Primary Hepatocyte Editing % 100 [2]: 1.96%
- Cyno Primary Hepatocyte Editing % 500 [2]: 7.59%
- Cyno Primary Hepatocyte Editing % 2500 [2]: 33.48%

B14: GA183: PCSK9 gRNA; protospacer CTACGTGGTGGTGCTGAAGG (SEQ ID NO: 177) (nucleic acid)
guide: mC*mU*mA*rCrGrUrGrGrUrGrGrUrGrCrUrGrArArGrGrGrUrUrUrUrArGrArGrCrUrArGrArArArUrArGrCrArArGrUrUrArArArArUrArArGrGrCrUrArGrUrCrCrGrUrUrArUrCrArArCrUrUrGrArArArArArGrUrGrGrCrArCrCrGrArGrUrCrGrGrUrGrCrU*mU*mU*mU
- Human Primary Hepatocyte Editing % 100 [1]: 2.21%
- Human Primary Hepatocyte Editing % 500 [1]: 9.89%
- Human Primary Hepatocyte Editing % 2500 [1]: 32.35%
- Cyno Primary Hepatocyte Editing % 100 [2]: 2.87%
- Cyno Primary Hepatocyte Editing % 500 [2]: 15.99%
- Cyno Primary Hepatocyte Editing % 2500 [2]: 39.56%
